Test results reported in publication PMC7241850.

Tests used:
[1] = target: HIV-1 Env E1 R563Q (HIV-1 (clade B, individual 653116))
[2] = target: HIV-1 Env NE1 Q563R (HIV-1 (clade B, individual 653116))

HIV-1 IIIB C34 Peptide
IC50 of inhibition of infection of TZM-bl cells by pseudovirus (luciferase) [1]: 0.6 µg/mL | IC50 of inhibition of infection of TZM-bl cells by pseudovirus (luciferase) [2]: 0.04 µg/mL
